This note sets out measurements from patent US20190218292A1.

Experiment [1] deals with hCD32b (human) (UniProt P31994). Description: ELISA, coated hCD32b, 0.5 µg/ml.
For experiment [2], the target named is FcRn receptor (recombinant protein human FcRnα and β2-microglobulin) (human) (UniProt P55899). The experiment in a line: ELISA at pH 6, coated FcRn, 10 µg/ml. On the technique in general: An ELISA detects its analyte on a solid surface through an enzyme-linked reagent.
The target of experiment [3] is hCD32b (human) (UniProt P31994). The experiment in a line: ELISA, coated hCD32b, IgG aggregated with anti-CK F(ab')2-HRP.
Experiment [4] has as its target hCD32aH (human) (UniProt P12318). The experiment in a line: ELISA, coated hCD32aH, 0.5 µg/ml.
Experiment [5] deals with cynomolgus monkey PD1 antigen (cynomolgus monkey) (UniProt B0LAJ3). Description: ELISA, coated cynomolgus PD1.
The target of experiment [6] is human PD1 antigen (recombinant protein) (human) (UniProt Q15116). The experiment in a line: ELISA, coated human PD1.
Experiment [7] deals with hCD32aR (human) (UniProt P12318). Description: ELISA, coated hCD32aR, 0.5 µg/ml.
Experiment [8] has as its target human CD64 receptor (hFcγRI) (human) (UniProt P12314). The experiment in a line: ELISA, coated hCD64, 0.5 µg/ml.
Experiment [9] shares this target. Description: ELISA, coated hCD64.
For experiment [10], the target named is hCD32aR (human) (UniProt P12318). Description: ELISA, coated hCD32aR, IgG aggregated with anti-CK F(ab')2-HRP.
In experiment [11] the target is cynomolgus monkey PD1 antigen (cynomolgus monkey) (UniProt B0LAJ3). The experiment in a line: ELISA, coated cynomolgus PD1, 0.2 µg/ml.
Experiment [12] has as its target hCD32aH (human) (UniProt P12318). The experiment in a line: ELISA, coated hCD32aH, IgG aggregated with anti-CK F(ab')2-HRP.
For experiment [13], the target named is human PD1 antigen (recombinant protein) (human) (UniProt Q15116). Description: ELISA, coated human PD1, 0.2 µg/ml.
For experiment [14], the target named is murine PD1 antigen (murine) (UniProt Q02242). Description: ELISA, coated murine PD1.
Experiment [15] deals with FcRn receptor (recombinant protein human FcRnα and β2-microglobulin) (human) (UniProt P55899). The experiment in a line: ELISA at pH 6, coated FcRn.
Experiment [16] deals with hCD16aV (human) (UniProt P08637). The experiment in a line: ELISA, coated hCD16aV, IgG aggregated with anti-CK F(ab')2-HRP.
For experiment [17] the target is unchanged. Description: ELISA, coated hCD16aV, 0.5 µg/ml.

Chain of hCD32b (human) (P31994 46-217): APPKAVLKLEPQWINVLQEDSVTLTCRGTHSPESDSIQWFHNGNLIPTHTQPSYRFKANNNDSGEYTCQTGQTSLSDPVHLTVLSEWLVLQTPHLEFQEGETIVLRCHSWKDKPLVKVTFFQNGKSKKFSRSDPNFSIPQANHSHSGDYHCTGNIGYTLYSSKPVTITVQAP
Chain of FcRn receptor (recombinant protein human FcRnα and β2-microglobulin) (human) (P55899 24-297 limits assumed, chain 1 of 2): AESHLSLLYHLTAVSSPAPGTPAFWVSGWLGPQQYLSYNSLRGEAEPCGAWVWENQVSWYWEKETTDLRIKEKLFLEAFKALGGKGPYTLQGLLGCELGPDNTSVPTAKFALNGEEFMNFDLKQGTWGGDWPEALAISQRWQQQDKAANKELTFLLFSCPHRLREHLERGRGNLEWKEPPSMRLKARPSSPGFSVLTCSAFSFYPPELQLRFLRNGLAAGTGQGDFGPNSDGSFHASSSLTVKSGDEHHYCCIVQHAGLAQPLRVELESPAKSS
Chain of FcRn receptor (recombinant protein human FcRnα and β2-microglobulin) (human) (P61769 21-119 limits assumed, chain 2 of 2, further chain): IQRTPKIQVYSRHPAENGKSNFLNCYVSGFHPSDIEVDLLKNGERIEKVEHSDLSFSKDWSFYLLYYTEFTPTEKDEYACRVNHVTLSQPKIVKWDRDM
Chain of hCD32aH (human) (P12318 36-218): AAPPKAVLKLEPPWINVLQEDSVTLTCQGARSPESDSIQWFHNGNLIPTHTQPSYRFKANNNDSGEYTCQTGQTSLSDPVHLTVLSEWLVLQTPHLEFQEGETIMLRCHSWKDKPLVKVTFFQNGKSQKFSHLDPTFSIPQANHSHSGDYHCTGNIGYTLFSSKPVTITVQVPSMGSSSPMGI
Chain of cynomolgus monkey PD1 antigen (cynomolgus monkey) (B0LAJ3 entry or part of it limits assumed, form in doubt): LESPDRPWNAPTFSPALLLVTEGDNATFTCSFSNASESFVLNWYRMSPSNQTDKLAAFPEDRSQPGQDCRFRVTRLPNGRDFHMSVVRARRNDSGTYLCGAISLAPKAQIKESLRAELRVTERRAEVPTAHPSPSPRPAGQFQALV
Chain of human CD64 receptor (hFcγRI) (human) (P12314 16-288 limits assumed): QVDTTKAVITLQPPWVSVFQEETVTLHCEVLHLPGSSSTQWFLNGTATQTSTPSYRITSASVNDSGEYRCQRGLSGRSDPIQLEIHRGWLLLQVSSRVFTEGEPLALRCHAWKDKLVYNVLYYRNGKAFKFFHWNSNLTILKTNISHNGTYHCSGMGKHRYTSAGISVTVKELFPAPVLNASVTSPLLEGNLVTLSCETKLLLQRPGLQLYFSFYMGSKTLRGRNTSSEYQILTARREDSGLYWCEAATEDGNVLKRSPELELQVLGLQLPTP
Chain of human PD1 antigen (recombinant protein) (human) (Q15116 25-167 limits assumed): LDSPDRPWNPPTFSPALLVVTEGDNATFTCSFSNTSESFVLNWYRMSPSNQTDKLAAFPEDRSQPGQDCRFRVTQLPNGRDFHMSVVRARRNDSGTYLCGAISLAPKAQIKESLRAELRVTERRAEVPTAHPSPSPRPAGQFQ
Chain of murine PD1 antigen (murine) (Q02242 25-167 limits assumed): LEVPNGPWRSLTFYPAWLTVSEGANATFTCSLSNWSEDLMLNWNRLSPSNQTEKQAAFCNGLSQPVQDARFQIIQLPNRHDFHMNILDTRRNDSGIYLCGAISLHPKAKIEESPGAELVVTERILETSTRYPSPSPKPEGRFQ

For the substance “IgG1_C6A_74 nivolumab (V259I/N315D/N434Y) (antibody)”, the OD Ratio variant/IgG1 WT in the experiment with hCD32b (human) [1] turned out to be 0.24; in experiment [2], 7.47; with hCD32aH (human) [4] it was 1.02; in the experiment with hCD32aR (human) [7] it was 0.65; in [8] it was 0.98; in experiment [11], 0.95. Besides, the figures for the OD Ratio variant/IgG1 WT (in experiment [13]; in the experiment with hCD16aV (human) [17]) were 1.1 and 1.31, respectively. Also, the OD 450 nm at 0.5 µg/ml worked out at 0.481 OD 450 nm in the experiment with hCD32b (human) [3]; 1.24 OD 450 nm in experiment [9]; 2.43 OD 450 nm with hCD32aR (human) [10]; 1.65 OD 450 nm with hCD32aH (human) [12]; 1.07 OD 450 nm with hCD16aV (human) [16]. For the same substance, the OD 450 nm at 0.2 µg/ml in experiment [5] is 2.28 OD 450 nm; in [6], 2.87 OD 450 nm; in experiment [14], 0.235 OD 450 nm. For the same substance, the OD 450 nm at 10 µg/ml in experiment [15] came to 2.37 OD 450 nm.
As to “IgG1_C6A_74Del294 nivolumab (V259I/Del294/N315D/N434Y) (antibody)”, the OD Ratio variant/IgG1 WT was 0.06 with hCD32b (human) [1]; 7.27 in [2]; 0.05 in the experiment with hCD32aH (human) [4]; 0.06 with hCD32aR (human) [7]; 0.05 in experiment [8]; 0.96 in experiment [11]. In addition, the OD Ratio variant/IgG1 WT in experiment [13] is 1.06; in the experiment with hCD16aV (human) [17], 0.15. For the same substance, the OD 450 nm at 0.5 µg/ml came out at 0.132 OD 450 nm with hCD32b (human) [3]; 0.0574 OD 450 nm in experiment [9]; 0.242 OD 450 nm with hCD32aR (human) [10]; 0.0798 OD 450 nm with hCD32aH (human) [12]; 0.121 OD 450 nm with hCD16aV (human) [16]. In addition, the figures for the OD 450 nm at 0.2 µg/ml in experiment [5], in experiment [6] and in experiment [14] were 2.29 OD 450 nm, 2.77 OD 450 nm and 0.31 OD 450 nm, respectively. Besides, the OD 450 nm at 10 µg/ml in experiment [15] is 2.3 OD 450 nm.
In the case of “IgG1_WT nivolumab (from UniProt P01857 1-330) (antibody)”, the OD 450 nm at 0.5 µg/ml in experiment [9] was found to be 1.26 OD 450 nm. Besides, the OD 450 nm at 10 µg/ml in [15] is 0.317 OD 450 nm.
Take “IgG1_WT pembrolizumab (from UniProt P01857 1-330) (antibody)”: the OD 450 nm at 0.5 µg/ml in experiment [9] was determined as 0.777 OD 450 nm. Also, the OD 450 nm at 10 µg/ml in experiment [15] is 0.379 OD 450 nm.
